# Source: article doi:10.1101/2022.08.07.503104, “A tripartite complex HIV-1 Tat-cyclophilin A-capsid protein enables Tat encapsidation that is required for HIV-1 infectivity” (bioRxiv, 2022)
# B1: Recombinant Tat (86 residues, BH10 isolate) (natural protein)
# chain: MEPVDPRLEPWKHPGSQPKTACTNCYCKKCCFHCQVCFITKALGISYGRKKRRQRRRPPQGSQTHQVSLSKQPTSQSRGDPTGPKE
# notes: HIV-1 Tat, BH10 isolate, 86 residues; source: E. coli, purified (as Vendeville et al., 2004); lyophilized
# Legend:
# [1] = target: T1, Recombinant human CypA (human, UniProt P62937 1-165, Monolith RED-NHS 2nd generation fluorescent label, in the MST experiments only); assay: MST; fluorescently labeled CypA at 50 nM, partner titrated; where indicated CypA first mixed with 20 µM CA or 1 µM Tat; 20°C, 150 mM NaCl, 50 mM citrate, pH 7.3, 0.05% Tween; settings: both partners purified
# T1 construct: extra N-terminal gly residue left after TEV cleavage; cyclophilin A (CypA), human; Unlabeled in SEC and SPR, labeled in MST; also called cyclophilin A; labeled CypA; source: E. coli BL21 λDE3, purified (Ni-NTA, TEV cleavage, second Ni-NTA); not shown: His6, N-terminal, cleaved
# T1 sequence (P62937 other isoform, or with tags, fused parts or gaps): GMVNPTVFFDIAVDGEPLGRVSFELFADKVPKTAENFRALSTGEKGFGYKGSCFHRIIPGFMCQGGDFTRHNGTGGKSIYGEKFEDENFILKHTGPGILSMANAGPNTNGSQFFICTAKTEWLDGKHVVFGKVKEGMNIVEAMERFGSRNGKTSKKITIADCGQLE
# [2] = target: T1, Recombinant human CypA; assay: SPR; Tat immobilised on a CM5S chip by amine coupling (~11000 RU); CypA or equimolecular CypA/CA mix at 370-6000 nM, one cycle kinetic titration, or CA at 2 µM; 25°C, 20 mM phosphate, 30 mM citrate, pH 7, 150 mM NaCl, 0.05% P20; two state fitting model; settings: both partners purified
binder,measurement,setting,value
B1,Kd,[1],243 ± 23 nM
same,Kd,[2],255 ± 10 nM
